Laboratory results published in US20260184748A1 (University of Pennsylvania, published 2026).
Where no end group is shown, it is not given here.

Columns and labels:
Experiment in all cases: cell-based or functional assay
[1] = target: T1, relaxin-3 receptor (RXFP3) (UniProt Q9NSD7 1-469)
T1 sequence (looked up): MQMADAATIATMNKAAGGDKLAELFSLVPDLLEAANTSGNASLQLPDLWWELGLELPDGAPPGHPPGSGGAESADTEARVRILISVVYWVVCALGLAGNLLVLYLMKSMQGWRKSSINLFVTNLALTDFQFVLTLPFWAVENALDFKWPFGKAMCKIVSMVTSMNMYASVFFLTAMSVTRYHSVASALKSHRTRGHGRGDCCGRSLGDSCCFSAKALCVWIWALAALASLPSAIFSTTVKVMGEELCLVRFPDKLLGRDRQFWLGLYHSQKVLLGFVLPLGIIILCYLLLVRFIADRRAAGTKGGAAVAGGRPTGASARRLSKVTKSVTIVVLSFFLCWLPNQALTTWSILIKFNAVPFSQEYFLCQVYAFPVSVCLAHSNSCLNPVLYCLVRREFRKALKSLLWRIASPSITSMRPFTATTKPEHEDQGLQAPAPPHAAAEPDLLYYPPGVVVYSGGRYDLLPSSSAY

SSTR2 = SSTR2 (UniProt P30874 1-369)
Chain of SSTR2 (P30874 whole entry): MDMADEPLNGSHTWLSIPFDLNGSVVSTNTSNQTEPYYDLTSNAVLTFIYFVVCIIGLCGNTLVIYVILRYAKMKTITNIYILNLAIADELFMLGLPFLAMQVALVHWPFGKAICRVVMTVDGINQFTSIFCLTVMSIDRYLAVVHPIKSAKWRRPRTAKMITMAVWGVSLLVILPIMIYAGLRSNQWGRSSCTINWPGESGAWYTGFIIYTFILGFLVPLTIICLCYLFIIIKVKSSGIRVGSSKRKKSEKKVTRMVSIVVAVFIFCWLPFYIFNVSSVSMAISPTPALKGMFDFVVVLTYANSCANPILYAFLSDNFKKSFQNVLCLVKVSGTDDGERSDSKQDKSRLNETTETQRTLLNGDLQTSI

PRLHR = target: T2, PRLHR (UniProt P49683 1-370)
T2 sequence (looked up): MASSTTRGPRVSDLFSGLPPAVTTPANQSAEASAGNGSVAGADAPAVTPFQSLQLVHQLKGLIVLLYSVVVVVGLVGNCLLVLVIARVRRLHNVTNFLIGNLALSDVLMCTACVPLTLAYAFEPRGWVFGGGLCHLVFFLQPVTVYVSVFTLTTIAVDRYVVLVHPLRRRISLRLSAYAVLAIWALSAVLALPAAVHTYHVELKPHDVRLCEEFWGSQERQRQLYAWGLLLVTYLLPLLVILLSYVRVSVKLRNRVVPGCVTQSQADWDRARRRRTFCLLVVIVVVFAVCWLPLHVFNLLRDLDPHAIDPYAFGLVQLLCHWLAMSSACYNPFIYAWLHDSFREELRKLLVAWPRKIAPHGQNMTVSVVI

CXCR7 = CXCR7 (UniProt P25106 1-362)
Chain of CXCR7 (P25106 whole entry): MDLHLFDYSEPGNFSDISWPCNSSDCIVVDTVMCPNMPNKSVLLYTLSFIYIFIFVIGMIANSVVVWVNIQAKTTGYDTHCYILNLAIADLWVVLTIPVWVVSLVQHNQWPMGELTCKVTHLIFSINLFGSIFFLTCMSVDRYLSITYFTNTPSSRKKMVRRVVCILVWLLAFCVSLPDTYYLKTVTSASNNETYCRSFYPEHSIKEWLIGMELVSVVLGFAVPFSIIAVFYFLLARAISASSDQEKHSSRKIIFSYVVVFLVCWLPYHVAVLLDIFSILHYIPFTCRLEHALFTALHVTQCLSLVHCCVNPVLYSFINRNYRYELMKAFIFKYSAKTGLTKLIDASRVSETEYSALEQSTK

GRPR = GRPR (UniProt P30550 1-384)
Chain of GRPR (P30550 whole entry): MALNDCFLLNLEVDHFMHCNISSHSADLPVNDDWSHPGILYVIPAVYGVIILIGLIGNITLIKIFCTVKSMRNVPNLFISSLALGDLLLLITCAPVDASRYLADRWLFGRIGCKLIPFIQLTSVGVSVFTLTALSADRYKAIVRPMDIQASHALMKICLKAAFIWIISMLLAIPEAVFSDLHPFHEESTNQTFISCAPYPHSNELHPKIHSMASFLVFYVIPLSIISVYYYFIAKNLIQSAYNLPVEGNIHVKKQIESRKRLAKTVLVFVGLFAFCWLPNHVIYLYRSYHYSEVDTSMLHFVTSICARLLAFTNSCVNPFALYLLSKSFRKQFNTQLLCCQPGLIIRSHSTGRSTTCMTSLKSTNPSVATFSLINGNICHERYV

CCR3 = target: T3, CCR3 (UniProt P51677 1-355)
T3 sequence (looked up): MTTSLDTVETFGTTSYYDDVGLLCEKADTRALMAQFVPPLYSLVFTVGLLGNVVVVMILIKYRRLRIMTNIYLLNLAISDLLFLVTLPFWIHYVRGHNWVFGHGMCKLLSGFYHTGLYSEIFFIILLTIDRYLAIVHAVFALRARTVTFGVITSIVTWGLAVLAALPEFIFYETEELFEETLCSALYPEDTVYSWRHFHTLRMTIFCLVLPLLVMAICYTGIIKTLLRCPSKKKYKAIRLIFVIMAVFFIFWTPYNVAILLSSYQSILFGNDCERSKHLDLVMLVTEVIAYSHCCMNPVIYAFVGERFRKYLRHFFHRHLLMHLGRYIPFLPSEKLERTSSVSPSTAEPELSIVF

MRGPRX1 = MRGPRX1 (UniProt Q96LB2 1-322)
Chain of MRGPRX1 (Q96LB2 whole entry): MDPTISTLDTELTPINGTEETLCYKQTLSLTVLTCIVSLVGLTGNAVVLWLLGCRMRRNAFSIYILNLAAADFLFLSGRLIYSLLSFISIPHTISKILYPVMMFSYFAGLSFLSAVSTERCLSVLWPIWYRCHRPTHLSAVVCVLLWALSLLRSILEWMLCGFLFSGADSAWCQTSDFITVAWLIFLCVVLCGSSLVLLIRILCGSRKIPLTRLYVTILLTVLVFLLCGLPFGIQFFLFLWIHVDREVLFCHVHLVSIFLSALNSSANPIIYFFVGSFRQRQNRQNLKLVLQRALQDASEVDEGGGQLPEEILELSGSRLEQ

OXER1 = OXER1 (UniProt Q8TDS5 1-384, limits assumed)
Chain of OXER1 (Q8TDS5 whole entry): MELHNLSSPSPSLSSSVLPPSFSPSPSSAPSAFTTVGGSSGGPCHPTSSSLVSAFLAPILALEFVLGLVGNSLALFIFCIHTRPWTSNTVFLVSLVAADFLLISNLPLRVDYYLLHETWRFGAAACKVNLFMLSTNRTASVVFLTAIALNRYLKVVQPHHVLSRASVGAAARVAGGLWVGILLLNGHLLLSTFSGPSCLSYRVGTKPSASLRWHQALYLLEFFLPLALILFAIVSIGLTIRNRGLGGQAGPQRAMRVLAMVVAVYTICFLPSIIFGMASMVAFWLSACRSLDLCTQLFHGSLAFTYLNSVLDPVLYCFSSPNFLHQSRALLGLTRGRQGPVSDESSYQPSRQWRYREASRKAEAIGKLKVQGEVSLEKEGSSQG

GLP1R = GLP1R (UniProt P43220 24-463)
Chain of GLP1R (P43220 24-463 limits assumed): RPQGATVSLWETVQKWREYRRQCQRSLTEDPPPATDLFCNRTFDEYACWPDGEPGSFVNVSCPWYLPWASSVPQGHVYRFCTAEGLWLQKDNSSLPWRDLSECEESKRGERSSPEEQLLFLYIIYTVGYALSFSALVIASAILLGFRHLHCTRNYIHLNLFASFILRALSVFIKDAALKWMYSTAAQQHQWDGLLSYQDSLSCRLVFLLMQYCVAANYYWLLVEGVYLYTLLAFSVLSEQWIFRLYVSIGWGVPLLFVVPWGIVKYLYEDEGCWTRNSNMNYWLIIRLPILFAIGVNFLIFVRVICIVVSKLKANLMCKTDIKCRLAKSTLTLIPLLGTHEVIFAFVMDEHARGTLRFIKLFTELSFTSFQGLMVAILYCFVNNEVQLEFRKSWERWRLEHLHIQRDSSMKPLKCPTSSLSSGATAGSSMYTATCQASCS

GPR109B = GPR109B (UniProt P49019 1-387)
Chain of GPR109B (P49019 whole entry): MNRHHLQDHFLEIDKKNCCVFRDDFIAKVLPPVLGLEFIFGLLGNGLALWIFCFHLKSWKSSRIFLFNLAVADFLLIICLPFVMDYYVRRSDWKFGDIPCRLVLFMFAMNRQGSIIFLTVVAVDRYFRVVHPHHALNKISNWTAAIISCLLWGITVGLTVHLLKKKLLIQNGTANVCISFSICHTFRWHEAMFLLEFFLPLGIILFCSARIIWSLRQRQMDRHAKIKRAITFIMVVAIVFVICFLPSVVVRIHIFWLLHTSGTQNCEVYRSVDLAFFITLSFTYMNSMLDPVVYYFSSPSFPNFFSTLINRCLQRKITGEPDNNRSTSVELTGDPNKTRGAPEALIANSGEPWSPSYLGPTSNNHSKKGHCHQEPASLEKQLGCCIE

PTAFR = PTAFR (UniProt P25105 1-342)
Chain of PTAFR (P25105 whole entry): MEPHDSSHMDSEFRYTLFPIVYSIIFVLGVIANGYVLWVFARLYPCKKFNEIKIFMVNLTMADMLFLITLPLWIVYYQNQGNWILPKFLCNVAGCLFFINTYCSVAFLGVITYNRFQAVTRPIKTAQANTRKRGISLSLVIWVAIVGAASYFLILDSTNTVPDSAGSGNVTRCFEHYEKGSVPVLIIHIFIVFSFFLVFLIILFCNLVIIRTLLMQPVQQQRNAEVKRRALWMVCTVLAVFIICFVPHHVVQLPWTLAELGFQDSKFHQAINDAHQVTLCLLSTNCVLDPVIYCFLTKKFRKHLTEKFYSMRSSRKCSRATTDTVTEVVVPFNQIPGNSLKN

CCKBR = target: T4, CCKBR (UniProt P32239 1-447)
T4 sequence (looked up): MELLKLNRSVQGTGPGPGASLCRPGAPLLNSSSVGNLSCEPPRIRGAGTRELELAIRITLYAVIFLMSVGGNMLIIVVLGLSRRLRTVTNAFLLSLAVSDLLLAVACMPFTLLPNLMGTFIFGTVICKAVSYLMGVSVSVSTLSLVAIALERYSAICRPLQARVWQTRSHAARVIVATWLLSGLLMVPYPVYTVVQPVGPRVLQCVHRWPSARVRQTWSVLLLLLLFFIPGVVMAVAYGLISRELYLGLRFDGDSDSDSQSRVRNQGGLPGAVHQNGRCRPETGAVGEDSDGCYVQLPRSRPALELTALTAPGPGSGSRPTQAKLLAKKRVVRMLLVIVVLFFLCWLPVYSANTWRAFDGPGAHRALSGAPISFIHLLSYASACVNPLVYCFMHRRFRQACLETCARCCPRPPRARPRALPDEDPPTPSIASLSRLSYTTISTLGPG

CXCR2 = target: T5, CXCR2 (UniProt P25025 1-360)
T5 sequence (looked up): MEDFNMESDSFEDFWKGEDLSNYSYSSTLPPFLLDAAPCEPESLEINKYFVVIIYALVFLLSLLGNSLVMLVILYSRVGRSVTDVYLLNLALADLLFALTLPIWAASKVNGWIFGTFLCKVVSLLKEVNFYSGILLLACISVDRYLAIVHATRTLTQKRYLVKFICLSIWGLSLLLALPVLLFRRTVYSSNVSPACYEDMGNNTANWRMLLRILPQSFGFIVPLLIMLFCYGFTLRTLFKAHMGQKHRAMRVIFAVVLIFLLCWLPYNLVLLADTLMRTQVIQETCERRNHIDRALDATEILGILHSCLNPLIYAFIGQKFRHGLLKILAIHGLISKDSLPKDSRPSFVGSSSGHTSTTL

SSTR5 = SSTR5 (UniProt P35346 1-364)
Chain of SSTR5 (P35346 whole entry): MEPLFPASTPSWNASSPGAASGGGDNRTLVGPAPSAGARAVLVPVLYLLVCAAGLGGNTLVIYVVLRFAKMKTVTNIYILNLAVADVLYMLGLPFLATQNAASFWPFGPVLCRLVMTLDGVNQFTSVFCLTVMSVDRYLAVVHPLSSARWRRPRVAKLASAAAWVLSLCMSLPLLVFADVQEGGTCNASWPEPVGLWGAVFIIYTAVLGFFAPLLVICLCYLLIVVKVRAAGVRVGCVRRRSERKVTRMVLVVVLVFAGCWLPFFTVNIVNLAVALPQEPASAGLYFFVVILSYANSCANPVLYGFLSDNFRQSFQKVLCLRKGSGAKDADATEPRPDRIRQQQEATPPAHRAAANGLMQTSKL

DRD3 = DRD3 (UniProt P35462 1-400)
Chain of DRD3 (P35462 whole entry): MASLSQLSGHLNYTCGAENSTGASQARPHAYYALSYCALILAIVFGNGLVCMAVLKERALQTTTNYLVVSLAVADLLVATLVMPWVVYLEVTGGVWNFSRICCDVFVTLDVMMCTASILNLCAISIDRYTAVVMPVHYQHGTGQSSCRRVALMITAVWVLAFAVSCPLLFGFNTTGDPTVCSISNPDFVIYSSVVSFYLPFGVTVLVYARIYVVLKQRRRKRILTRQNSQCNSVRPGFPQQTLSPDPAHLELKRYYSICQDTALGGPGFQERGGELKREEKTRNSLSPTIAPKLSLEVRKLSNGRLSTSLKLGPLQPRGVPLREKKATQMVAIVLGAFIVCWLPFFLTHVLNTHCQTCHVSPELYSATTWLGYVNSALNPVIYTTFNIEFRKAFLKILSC

B1: octadecaneuropeptide (ODN) (peptide)
peptide: QATVGDVNTDRPGLLDLK
modifications: also: synthesised on Rink amide resin, C-terminal amide not given here outright
% Activity, arrestin, antagonist mode, 2.5 uM [1]: 31.4%
% Activity, arrestin, antagonist mode, 2.5 uM (SSTR2): -20.5%
% Activity, arrestin, antagonist mode, 2.5 uM (PRLHR): -22.2%
% Activity, arrestin, antagonist mode, 2.5 uM (CXCR7): -9.6%
% Activity, arrestin, antagonist mode, 2.5 uM (GRPR): -12.2%
% Activity, arrestin, antagonist mode, 2.5 uM (CCR3): -5.8%
% Activity, arrestin, antagonist mode, 2.5 uM (MRGPRX1): 3.8%
% Activity, arrestin, antagonist mode, 2.5 uM (OXER1): -39.7%
% Activity, arrestin, antagonist mode, 2.5 uM (GLP1R): -11%
% Activity, arrestin, antagonist mode, 2.5 uM (GPR109B): -17%
% Activity, arrestin, antagonist mode, 2.5 uM (PTAFR): -7.3%
% Activity, arrestin, antagonist mode, 2.5 uM (CCKBR): -7.8%
% Activity, arrestin, antagonist mode, 2.5 uM (CXCR2): -9.8%
% Activity, arrestin, antagonist mode, 2.5 uM (SSTR5): -17.3%
% Activity, arrestin, antagonist mode, 2.5 uM (DRD3): -1%
